Experiments:
[1] = target: the molecule itself; assay: SEC; time profile of cold dissociation at 2°C followed by HPLC gel filtration; Tricine-KCl buffer pH 7.5, protein 1.0 mg/ml; tetramer to dimers
[2] = target: the molecule itself; assay: SEC; HPLC gel filtration (BIOSEP-SEC S-3000) at 2°C after 20 h at 2°C; holo enzymes, 1 mg/ml, Tricine-KCl buffer pH 7.5 with PLP (0.1 mM by the table's footnote), 2 mM EDTA, 5 mM 2-mercaptoethanol; tetramer to dimers
[3] = target: the molecule itself; assay: SEC; HPLC gel filtration (BIOSEP-SEC S-3000) at 25°C; holo enzymes, 1 mg/ml, Tricine-KCl buffer pH 7.5 with PLP (0.1 mM by the table's footnote), 2 mM EDTA, 5 mM 2-mercaptoethanol; tetramer to dimers
[4] = target: the molecule itself; assay: as above; remark: listed apart in the source
[5] = target: the molecule itself; assay: SEC; HPLC gel filtration (BIOSEP-SEC S-3000) at 25°C; apo enzymes, same Tricine-KCl buffer without PLP; tetramer to dimers (P. vulgaris: also to monomers)
[6] = target: the molecule itself; assay: SEC; HPLC gel filtration (BIOSEP-SEC S-3000) at 2°C after cooling (20 h; P. vulgaris 24 h); apo enzymes, same Tricine-KCl buffer without PLP; tetramer to dimers (P. vulgaris: also to monomers)

Protein	initial rate constant of cold dissociation (tetramer to dimers) [1] [min⁻¹]	degree of dissociation to dimers (%) [2] [%]	degree of dissociation to dimers (%) [3] [%]	stoichiometry N [4]	degree of dissociation to dimers (%) [5] [%]	degree of dissociation to dimers (%) [6] [%]
wild-type E. coli tryptophanase, holo form (enzyme, pyridoxal 5'-phosphate (PLP) covalently bound to Lys270, tryptophanase (Trpase, EC 4.1.99.1), E. coli, wild type, ~52 kD per monomer; also called wt holo; wt Trpase; source: E. coli SVS 370 cells containing the tnaA gene on plasmids, purified (DEAE anion exchange, Sephacryl S-300-HR)) not shown	0.00042	20	< 3	4	–	–
E. coli tryptophanase Y74F mutant, holo form (enzyme, pyridoxal 5'-phosphate (PLP) covalently bound to Lys270, tryptophanase (Trpase), E. coli, Y74F mutant; the sample called 'Y74F holo' was run with 0.1 mM PLP; also called Y74F holo; source: E. coli BL21(DE3), pET17b plasmid, purified) MENFKHLPEPFRIRVIEPVKRTTRAYREEAIIKSGMNPFLLDSEDVFIDLLTDSGTGAVTQSMQAAMMRGDEAFSGSRSYYALAESVKNIFGYQYTIPTHQGRGAEQIYIPVLIKKREQEKGLDRSKMVAFSNYFFDTTQGHSQINGCTVRNVYIKEAFDTGVRYDFKGNFDLEGLERGIEEVGPNNVPYIVATITSNSAGGQPVSLANLKAMYSIAKKYDIPVVMDSARFAENAYFIKQREAEYKDWTIEQITRETYKYADMLAMSAKKDAMVPMGGLLCMKDDSFFDVYTECRTLCVVQEGFPTYGGLEGGAMERLAVGLYDGMNLDWLAYRIAQVQYLVDGLEEIGVVCQQAGGHAAFVDAGKLLPHIPADQFPAQALACELYKVAGIRAVEIGSFLLGRDPKTGKQLPCPAELLRLTIPRATYTQTHMDFIIEAFKHVKENAANIKGLTFTYEPKVLRHFTAKLKEV	–	66	17	–	–	–
E. coli tryptophanase C298S mutant, apo form (enzyme, tryptophanase (Trpase), E. coli, C298S mutant, without PLP; one monomer in the asymmetric unit of the crystal, the tetramer arises by symmetry; also called C298S apo; apo C298S; source: E. coli SVS 370 cells containing the tnaA gene with the site-directed mutation, purified; apo enzyme by overnight dialysis of the holo enzyme) MENFKHLPEPFRIRVIEPVKRTTRAYREEAIIKSGMNPFLLDSEDVFIDLLTDSGTGAVTQSMQAAMMRGDEAYSGSRSYYALAESVKNIFGYQYTIPTHQGRGAEQIYIPVLIKKREQEKGLDRSKMVAFSNYFFDTTQGHSQINGCTVRNVYIKEAFDTGVRYDFKGNFDLEGLERGIEEVGPNNVPYIVATITSNSAGGQPVSLANLKAMYSIAKKYDIPVVMDSARFAENAYFIKQREAEYKDWTIEQITRETYKYADMLAMSAKKDAMVPMGGLLCMKDDSFFDVYTECRTLSVVQEGFPTYGGLEGGAMERLAVGLYDGMNLDWLAYRIAQVQYLVDGLEEIGVVCQQAGGHAAFVDAGKLLPHIPADQFPAQALACELYKVAGIRAVEIGSFLLGRDPKTGKQLPCPAELLRLTIPRATYTQTHMDFIIEAFKHVKENAANIKGLTFTYEPKVLRHFTAKLKEV	–	–	–	–	> 80	88
E. coli tryptophanase Y74F mutant, apo form (enzyme, tryptophanase (Trpase), E. coli, Y74F mutant, without PLP; one monomer in the asymmetric unit of the crystal, the tetramer arises by symmetry; also called Y74F apo; apo Y74F; source: E. coli BL21(DE3), pET17b plasmid, purified; apo enzyme by overnight dialysis of the holo enzyme) MENFKHLPEPFRIRVIEPVKRTTRAYREEAIIKSGMNPFLLDSEDVFIDLLTDSGTGAVTQSMQAAMMRGDEAFSGSRSYYALAESVKNIFGYQYTIPTHQGRGAEQIYIPVLIKKREQEKGLDRSKMVAFSNYFFDTTQGHSQINGCTVRNVYIKEAFDTGVRYDFKGNFDLEGLERGIEEVGPNNVPYIVATITSNSAGGQPVSLANLKAMYSIAKKYDIPVVMDSARFAENAYFIKQREAEYKDWTIEQITRETYKYADMLAMSAKKDAMVPMGGLLCMKDDSFFDVYTECRTLCVVQEGFPTYGGLEGGAMERLAVGLYDGMNLDWLAYRIAQVQYLVDGLEEIGVVCQQAGGHAAFVDAGKLLPHIPADQFPAQALACELYKVAGIRAVEIGSFLLGRDPKTGKQLPCPAELLRLTIPRATYTQTHMDFIIEAFKHVKENAANIKGLTFTYEPKVLRHFTAKLKEV	–	–	–	–	80	83
E. coli tryptophanase C298S mutant, holo form (enzyme, pyridoxal 5'-phosphate (PLP) covalently bound to Lys270, tryptophanase (Trpase), E. coli, C298S mutant; also called C298S holo; source: E. coli SVS 370 cells containing the tnaA gene with the site-directed mutation, purified as the wild type) MENFKHLPEPFRIRVIEPVKRTTRAYREEAIIKSGMNPFLLDSEDVFIDLLTDSGTGAVTQSMQAAMMRGDEAYSGSRSYYALAESVKNIFGYQYTIPTHQGRGAEQIYIPVLIKKREQEKGLDRSKMVAFSNYFFDTTQGHSQINGCTVRNVYIKEAFDTGVRYDFKGNFDLEGLERGIEEVGPNNVPYIVATITSNSAGGQPVSLANLKAMYSIAKKYDIPVVMDSARFAENAYFIKQREAEYKDWTIEQITRETYKYADMLAMSAKKDAMVPMGGLLCMKDDSFFDVYTECRTLSVVQEGFPTYGGLEGGAMERLAVGLYDGMNLDWLAYRIAQVQYLVDGLEEIGVVCQQAGGHAAFVDAGKLLPHIPADQFPAQALACELYKVAGIRAVEIGSFLLGRDPKTGKQLPCPAELLRLTIPRATYTQTHMDFIIEAFKHVKENAANIKGLTFTYEPKVLRHFTAKLKEV	0.0032	64	< 5	4	–	–
E. coli tryptophanase W330F mutant, holo form (enzyme, pyridoxal 5'-phosphate (PLP) covalently bound to Lys270, tryptophanase (Trpase), E. coli, W330F mutant; also called W330F holo; source: E. coli SVS 370 cells containing the tnaA gene with the site-directed mutation, purified as the wild type) not shown	0.00084	61	< 5	4	–	–
wild-type E. coli tryptophanase, apo form (enzyme, tryptophanase (Trpase, EC 4.1.99.1), E. coli, wild type, without PLP; also called wt apo; apo wt Trpase; source: E. coli SVS 370 cells containing the tnaA gene on plasmids, purified; apo enzyme by overnight dialysis of the holo enzyme against 0.1 M sodium phosphate-ethylenediamine buffer, pH 8.0, 4°C) not shown	–	–	–	–	70	87
E. coli tryptophanase W330F mutant, apo form (enzyme, tryptophanase (Trpase), E. coli, W330F mutant, without PLP; also called W330F apo; source: E. coli SVS 370 cells containing the tnaA gene with the site-directed mutation, purified; apo enzyme by overnight dialysis of the holo enzyme) not shown	–	–	–	–	69	90

Reference: PMC2770544, “Conformational changes and loose packing promote E. coli Tryptophanase cold lability” (BMC Structural Biology, 2009)
